Measured values published in patent publication US20180282402A1 (ATYR PHARMA, published 2018).
Blank lines part the entries; values can stand above or below the binder they belong to. No end group written: not given here.

B7: Fc-HRS(2-60) (Fc fusion)
chain: {human IgG Fc}-AERAALEELVKLQGERVRGLKQQKASAELIEEEVAKLLKLKAQLGPDESKQKFVLKTPK
modifications: also: linker to Fc not given here, biotinylated for flow assay (maleimide-PEG11-biotin, ~3.35 per molecule)
notes: Fc at the N-terminus, HRS residues 2-60 (WHEP domain) at the C-terminus; in the imaging assay pre-complexed with anti-Fc-PE; also called HRS-Fc fusion protein construct; ATYR1923; not shown: human IgG Fc region

Experiments:
[1] = biological target: T1, NRP2a-GFP fusion protein on HEK293T cells (human, UniProt O60462 23-931); experiment: competition assay, immunofluorescence microscopy on HEK293T cells expressing NRP2v2-GFP, GFP-bright gate; VEGF-C titrated, competitor 175 nM Fc-HRS(2-60)/anti-Fc-PE [panel A]
T1 construct: Transiently expressed; cells fixed before staining; also called NRP2v2-GFP; cell-expressed NRP2a; not shown: GFP (Origene RG220706, NM_003872 ORF clone)
Description: (§1) HEK293T cells previously transfected with NRP2v2-GFP were passed the night before staining to 96 well Greiner Clear flat bottomed Microplates pre-coated with collagen coating solution. Supernatants were removed and cells were washed 1 time with binding buffer. Cells were then fixed with 50 μL of 3.7% methanol-free formaldehyde for 20 minutes at room temperature. Cells were washed 2× with binding buffer and then blocked with 100 μL of blocking buffer for 1 hour at room temperature. The cells were then washed one time with binding buffer and then incubated with 50 μL of staining complex overnight at 4 degrees Celsius. Cells were then washed 3 times with binding buffer, and then nuclei were counter stained with […] Hoechst diluted in DPBS for 10 minutes at room temperature. The Hoechst stain was replaced with 1×PBS and subsequently read on an IN Cell Analyzer 2200. 20× images were acquired and analyzed using In Cell Analyzer 1000 Workstation software. Segmentation of the cell mask was achieved using the GFP channel, and the average PE signal intensity was determined within this mask above a threshold intensity of 5000 (termed GFP Bright cells).

[2] = biological target: T2, NRP2-Fc (R&D Systems #2215-N2) (human, UniProt O60462 23-864, limits assumed); experiment: SPR: NRP2 as analyte over immobilized MARS Fc-WHEP [panel C]
T2 construct: Bought reagent used as NRP2 in the SPR experiments; also called human NRP2; Neuropilin 2; not shown: Fc

Fc-HRS(2-60) = biological target: B7; experiment: flow cytometry blocking assay: 43.75 nM biotinylated Fc-HRS(2-60) complexed with 87.5 nM streptavidin-PE, added with titrated antibody to Expi293 cells stably expressing NRP2, the blocked partner [panel B]
Human HARS = biological target: T3, Human HARS (human, UniProt P12081 1-509, limits assumed); experiment: SPR (ProteOn); HRS protein immobilized, antibody as analyte
T3 construct: also called human HRS; human histidyl-tRNA synthetase
T3 sequence: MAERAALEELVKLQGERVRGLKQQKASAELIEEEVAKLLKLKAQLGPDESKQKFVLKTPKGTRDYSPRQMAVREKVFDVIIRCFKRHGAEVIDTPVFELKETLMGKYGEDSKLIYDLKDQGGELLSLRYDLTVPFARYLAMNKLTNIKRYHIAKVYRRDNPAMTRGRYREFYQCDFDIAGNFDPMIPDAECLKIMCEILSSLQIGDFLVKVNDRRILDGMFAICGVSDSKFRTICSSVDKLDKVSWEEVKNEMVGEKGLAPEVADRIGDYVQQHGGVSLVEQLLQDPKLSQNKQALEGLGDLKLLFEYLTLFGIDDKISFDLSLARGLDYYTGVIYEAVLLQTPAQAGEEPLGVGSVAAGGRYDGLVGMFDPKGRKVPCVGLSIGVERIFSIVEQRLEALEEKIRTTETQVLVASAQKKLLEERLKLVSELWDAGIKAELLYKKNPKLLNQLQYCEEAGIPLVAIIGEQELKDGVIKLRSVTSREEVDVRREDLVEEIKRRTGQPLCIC

Mouse HARS = biological target: T4, Mouse HARS (mouse, UniProt Q61035 1-509, limits assumed); experiment: as above
T4 construct: also called mouse HRS
T4 sequence: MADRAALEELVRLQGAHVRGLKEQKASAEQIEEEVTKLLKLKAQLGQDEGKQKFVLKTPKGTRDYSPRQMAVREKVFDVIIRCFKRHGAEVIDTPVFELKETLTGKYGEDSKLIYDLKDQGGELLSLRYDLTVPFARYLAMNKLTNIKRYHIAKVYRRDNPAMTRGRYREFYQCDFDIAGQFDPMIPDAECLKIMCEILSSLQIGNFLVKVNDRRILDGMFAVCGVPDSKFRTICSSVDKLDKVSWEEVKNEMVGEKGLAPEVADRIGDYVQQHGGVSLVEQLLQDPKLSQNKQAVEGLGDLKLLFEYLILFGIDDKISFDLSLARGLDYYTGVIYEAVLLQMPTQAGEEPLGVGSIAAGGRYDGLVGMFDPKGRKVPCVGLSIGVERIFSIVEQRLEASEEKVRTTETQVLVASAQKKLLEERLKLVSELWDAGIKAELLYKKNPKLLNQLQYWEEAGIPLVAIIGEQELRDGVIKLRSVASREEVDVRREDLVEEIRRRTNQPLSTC

[3] = biological target: T2, NRP2-Fc (R&D Systems #2215-N2); experiment: SPR: NRP2 as analyte over immobilized GARS Fc-WHEP [panel B]
[4] = biological target: T2, NRP2-Fc (R&D Systems #2215-N2); experiment: SPR: NRP2 as analyte over immobilized WARS WHEP [panel D]
[5] = biological target: T2, NRP2-Fc (R&D Systems #2215-N2); experiment: SPR; column Binding to NRP2 observed by SPR
[6] = biological target: T5, Neuropilin 2A (NRP2A, NM_003872.2) on cells (human, UniProt O60462 23-931); experiment: Retrogenix cell microarray on HEK293 cells, sequential staining, 20 ug/ml test protein, AF647 anti-human IgG Fc detection
T5 construct: Used here for the Retrogenix HEK293 array and for the untagged NRP2v2 stably expressed on Expi293 cells; also called NRP2 variant 2; NRP2v2
Description: The detection antibody was used at screening concentrations of 2, 5, and 20 μg/ml, as more fully described below.
Primary hits (duplicate spots) were identified by analyzing fluorescence intensity in the AlexaFluor 647 and ZsGreen1 emission channels using the ImageQuant system, following standard fluorescent methodology. […] Additionally all vectors encoding all hits, plus control vectors, were spotted in duplicate on new slides, and used to reverse transfect human HEK293 cells as before.

[7] = biological target: T1, NRP2a-GFP fusion protein on HEK293T …; experiment: immunofluorescence microscopy (IN Cell Analyzer) on fixed HEK293T cells expressing NRP2v2-GFP, GFP-bright gate; Fc-HRS(2-60) titrated in 2-fold steps and complexed with anti-Fc-PE [panel A]
Description: as §1

[8] = biological target: T6, NRP1-His (R&D Systems #3870-N1) (human, UniProt O14786-2 22-644); experiment: SPR: NRP1 as analyte over immobilized Fc-HRS(2-60)
T6 construct: not shown: His tag

[9] = biological target: T7, Rat NRP2-Fc-His (R&D Systems #567-N2) (rat, UniProt O35276 23-858, limits assumed); experiment: SPR: 50 nM rat NRP2 as analyte over immobilized Fc-HRS(2-60) [panel A]
T7 construct: not shown: Fc and His tag
T7 sequence (looked up): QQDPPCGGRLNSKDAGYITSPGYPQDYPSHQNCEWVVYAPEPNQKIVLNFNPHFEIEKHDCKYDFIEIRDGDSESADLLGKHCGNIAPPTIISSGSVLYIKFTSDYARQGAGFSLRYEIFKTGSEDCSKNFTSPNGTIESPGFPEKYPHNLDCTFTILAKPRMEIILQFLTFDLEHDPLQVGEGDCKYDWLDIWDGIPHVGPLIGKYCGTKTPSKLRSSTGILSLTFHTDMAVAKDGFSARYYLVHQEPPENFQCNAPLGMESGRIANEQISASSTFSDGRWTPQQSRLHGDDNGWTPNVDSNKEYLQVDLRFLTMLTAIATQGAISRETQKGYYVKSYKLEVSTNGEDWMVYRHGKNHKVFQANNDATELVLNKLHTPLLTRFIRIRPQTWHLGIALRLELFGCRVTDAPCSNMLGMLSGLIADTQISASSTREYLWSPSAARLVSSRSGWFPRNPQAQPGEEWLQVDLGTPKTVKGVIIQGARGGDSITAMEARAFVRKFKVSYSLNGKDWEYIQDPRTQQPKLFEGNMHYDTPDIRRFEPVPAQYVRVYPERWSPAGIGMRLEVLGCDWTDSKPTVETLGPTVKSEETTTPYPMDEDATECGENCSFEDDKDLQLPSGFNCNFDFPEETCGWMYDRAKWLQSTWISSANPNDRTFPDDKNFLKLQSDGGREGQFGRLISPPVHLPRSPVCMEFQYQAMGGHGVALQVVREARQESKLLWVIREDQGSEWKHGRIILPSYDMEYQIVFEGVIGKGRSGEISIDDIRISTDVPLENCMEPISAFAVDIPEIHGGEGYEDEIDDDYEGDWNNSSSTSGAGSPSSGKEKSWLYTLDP

[10] = biological target: T8, Mouse PLXNA1-His (R&D Systems #4309-PA) (mouse, UniProt P70206 28-1242, limits assumed); experiment: SPR: mouse Plexin A1 as analyte over immobilized Fc-HRS(2-60)
T8 construct: also called mouse Plexin A1; not shown: His tag
T8 sequence (P70206 28-1242 limits assumed): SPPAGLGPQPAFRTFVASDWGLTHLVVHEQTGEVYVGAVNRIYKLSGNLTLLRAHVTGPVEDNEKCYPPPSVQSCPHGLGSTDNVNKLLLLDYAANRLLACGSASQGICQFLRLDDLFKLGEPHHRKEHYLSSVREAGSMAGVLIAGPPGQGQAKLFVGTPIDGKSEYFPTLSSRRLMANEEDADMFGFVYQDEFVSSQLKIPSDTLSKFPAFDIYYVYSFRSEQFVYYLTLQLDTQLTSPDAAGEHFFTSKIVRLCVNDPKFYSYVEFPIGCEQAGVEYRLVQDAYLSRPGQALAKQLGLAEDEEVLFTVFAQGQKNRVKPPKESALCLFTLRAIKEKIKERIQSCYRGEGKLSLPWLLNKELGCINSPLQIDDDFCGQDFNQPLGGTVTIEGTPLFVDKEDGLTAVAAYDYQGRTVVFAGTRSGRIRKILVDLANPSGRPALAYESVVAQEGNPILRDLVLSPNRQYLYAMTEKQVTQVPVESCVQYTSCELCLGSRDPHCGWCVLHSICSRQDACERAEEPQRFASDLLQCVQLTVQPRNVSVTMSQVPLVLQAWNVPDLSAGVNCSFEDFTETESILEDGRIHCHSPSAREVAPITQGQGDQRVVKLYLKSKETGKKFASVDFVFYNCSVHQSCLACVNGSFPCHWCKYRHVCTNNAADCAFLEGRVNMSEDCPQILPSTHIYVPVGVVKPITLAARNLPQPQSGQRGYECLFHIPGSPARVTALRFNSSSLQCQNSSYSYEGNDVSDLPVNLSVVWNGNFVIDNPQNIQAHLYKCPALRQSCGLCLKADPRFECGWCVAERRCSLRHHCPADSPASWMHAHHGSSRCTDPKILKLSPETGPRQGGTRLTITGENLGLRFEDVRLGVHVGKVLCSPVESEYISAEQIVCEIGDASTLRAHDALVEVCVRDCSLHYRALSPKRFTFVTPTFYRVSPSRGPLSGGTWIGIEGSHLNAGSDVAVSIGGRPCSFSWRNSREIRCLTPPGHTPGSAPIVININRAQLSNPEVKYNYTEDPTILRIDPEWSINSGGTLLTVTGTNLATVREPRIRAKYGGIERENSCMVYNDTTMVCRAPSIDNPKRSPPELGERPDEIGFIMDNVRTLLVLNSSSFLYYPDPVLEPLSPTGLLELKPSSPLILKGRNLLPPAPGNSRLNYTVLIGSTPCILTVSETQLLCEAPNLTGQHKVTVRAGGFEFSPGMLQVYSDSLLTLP

B4: GARS Fc-WHEP (Fc fusion, UniProt P41250 63-119, looked up)
chain: VLAPLRLAVRQQGDLVRKLKEDKAPQVDVDKAVAELKARKRVLEAKELALQPKDDIV
notes: domain: WHEP domain; not shown: Fc domain
binding result [3]: no binding (tested: 20 nM)

B6: VEGF-A145 (ligand, human, UniProt P15692-6 27-171, looked up)
chain: APMAEGGGQNHHEVVKFMDVYQRSYCHPIETLVDIFQEYPDEIEYIFKPSCVPLMRCGGCCNDEGLECVPTEESNITMQIMRIKPHQGQHIGEMSFLQHNKCECRPKKDRARQEKKSVRGKGKGQKRKRKKSRYKSWSVCDKPRR
binding result [5]: no binding

Binder: B7
binding result [6]: binds
binding result [7]: binds
binding result [8]: no binding (tested: 50 nM)
binding result [9]: binds
binding result [10]: no binding (tested: 50 nM)

More lines, now with the values ahead:

IC50 (read off the curve) [1]: ~2 nM
B1: VEGF-C (ligand, human, UniProt P49767 103-227, looked up)
chain: TEETIKFAAAHYNTEILKSIDNEWRKTQCMPREVCIDVGKEFGVATNTFFKPPCVSVYRCGGCCNSEGLQCMNTSTSYLSKTLFEITVPLSQGPKPVTISFANHTSCRCMSKLDVYRQVHSIIRR
notes: also called Recombinant Human VEGF-C Protein

binding result [2]: no binding (tested: 20 nM)
B2: MARS Fc-WHEP (Fc fusion, UniProt P56192 841-897, looked up)
chain: QIQALMDEVTKQGNIVRELKAQKADKNEVAAEVAKLLDLKKQLAVAEGKPPEAPKGK
notes: as for B4

IC50 (read off the curve) (Fc-HRS(2-60)): ~10 nM
Kd (Human HARS): 0.076 nM
Kd (Mouse HARS): 0.614 nM
B3: KL31-478 (antibody, V domains shown)
VH: QVQLVQSGAEVKKPGASVKVSCKASGYTFTDYCIGWIRQAPGQGLEWMGDICPGDTYTNDNEKFKDRATMTADTSTSTAYMELSSLRSEDTAVYYCARGEEQLGLRNAMDYWGQGTLVTVSS
VL: EIVLTQSPATLSLSPGERATLSCQSQSVSTSTYNYMHWYQQKPGQAPRLLIKYASNLESGIPDRFSGSGSGTDFTLTISRLEPEDFATYYCGHSYEIPWTFGGGTKVEIK
notes: Humanized; IgG1m(zf) kappa

binding result [4]: no binding (tested: 20 nM)
B5: WARS WHEP (other, UniProt P23381 8-64, looked up)
chain: SLLELFNSIATQGELVRSLKAGNASKDEIDSAVKMLVSLKMSYKAAAGEDYKADCPP
notes: domain: WHEP domain; also called WHEP domain of WARS with a V5/His tag; not shown: V5/His tag
